According to the supplement of paper PMC9112550, “Optimization of the antimicrobial peptide Bac7 by deep mutational scanning” (BMC Biology, 2022):

test system: Escherichia coli TOP10; test: shrunken log2 fold change of peptide-encoding DNA abundance (4.5 h post-induction vs induction); higher = less antimicrobial activity (less host growth inhibition); settings: time post-induction: 4.5 h; library: site-saturation at positions 5, 18, 19, 20
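Further: peptides expressed intracellularly from a pBAD plasmid library in pooled LB shake-flask culture, induced with 0.3% L-arabinose, DNA abundance read by NGS, three biological replicates, DESeq2 with apeglm shrinkage.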

Sequence	shrunken log2 fold change
RRIRNRPPRLPRPRPRPQNWPRP	-0.146
RRIRRRPPRLPRPRPRPHQEPRP	-0.0374
RRIRRRPPRLPRPRPRPEAWPRP	0.14
RRIRSRPPRLPRPRPRPNREPRP	-0.138
RRIRMRPPRLPRPRPRPGANPRP	1.17
RRIRMRPPRLPRPRPRPSTHPRP	0.021
RRIRFRPPRLPRPRPRPNCNPRP	-0.469
RRIRARPPRLPRPRPRPCDIPRP	-0.2
RRIRLRPPRLPRPRPRPKEGPRP	-0.0145
RRIRIRPPRLPRPRPRPTFMPRP	1.69
RRIRSRPPRLPRPRPRPGWSPRP	0.334
RRIRRRPPRLPRPRPRPMNYPRP	-0.0341
RRIRWRPPRLPRPRPRPNYIPRP	-0.57
RRIRKRPPRLPRPRPRPMMIPRP	-0.0134
RRIRERPPRLPRPRPRPNKGPRP	-0.164
RRIRPRPPRLPRPRPRPYRLPRP	-0.136
RRIRPRPPRLPRPRPRPHCNPRP	-0.52
RRIRMRPPRLPRPRPRPGQQPRP	1.34
RRIRDRPPRLPRPRPRPIDDPRP	0.224
RRIRLRPPRLPRPRPRPYCKPRP	-0.736
RRIRSRPPRLPRPRPRPYPIPRP	-0.356
RRIRTRPPRLPRPRPRPDFQPRP	0.00444
RRIRVRPPRLPRPRPRPDHTPRP	-0.428
RRIRKRPPRLPRPRPRPPHSPRP	0.509
RRIRVRPPRLPRPRPRPERRPRP	0.13

Sequence	shrunken log2 fold change
RRIRRRPPRLPRPRPRPFVTPRP	-0.0614
RRIRNRPPRLPRPRPRPSREPRP	-0.103
RRIRGRPPRLPRPRPRPMSTPRP	0.44
RRIRDRPPRLPRPRPRPQFIPRP	-0.935
RRIRQRPPRLPRPRPRPPHVPRP	0.15
RRIRCRPPRLPRPRPRPVDVPRP	-0.375
RRIRLRPPRLPRPRPRPDQMPRP	-0.0132
RRIRNRPPRLPRPRPRPFYFPRP	-0.718
RRIRDRPPRLPRPRPRPDELPRP	0.414
RRIRRRPPRLPRPRPRPPCTPRP	1.59
RRIRDRPPRLPRPRPRPFEEPRP	0.0467
RRIRIRPPRLPRPRPRPDVYPRP	-0.571
RRIRVRPPRLPRPRPRPGVYPRP	-0.0713
RRIRRRPPRLPRPRPRPFKVPRP	-0.0272
RRIRFRPPRLPRPRPRPRVFPRP	0.232
RRIRIRPPRLPRPRPRPDFTPRP	-0.355
RRIRHRPPRLPRPRPRPAQAPRP	0.183
RRIRTRPPRLPRPRPRPHGNPRP	-0.718
RRIRFRPPRLPRPRPRPPEKPRP	0.078
RRIRRRPPRLPRPRPRPEMVPRP	0.0411
RRIRDRPPRLPRPRPRPVHWPRP	0.31
RRIRWRPPRLPRPRPRPSWCPRP	-0.0416
RRIRMRPPRLPRPRPRPNALPRP	0.313
RRIRQRPPRLPRPRPRPEKYPRP	-0.304
RRIRIRPPRLPRPRPRPPAYPRP	-0.384

Sequence	shrunken log2 fold change
RRIRMRPPRLPRPRPRPNDIPRP	-0.0213
RRIRKRPPRLPRPRPRPCKSPRP	-0.0499
RRIRIRPPRLPRPRPRPADDPRP	-0.062
RRIRYRPPRLPRPRPRPGFKPRP	-0.579
RRIRTRPPRLPRPRPRPMMHPRP	-0.302
RRIRKRPPRLPRPRPRPGQVPRP	0.00902
RRIRGRPPRLPRPRPRPHKHPRP	0.0984
RRIRNRPPRLPRPRPRPGRMPRP	0.0895
RRIRNRPPRLPRPRPRPPTQPRP	0.267
RRIRLRPPRLPRPRPRPDGVPRP	-0.0786
RRIRMRPPRLPRPRPRPSLPPRP	-0.0418
RRIRTRPPRLPRPRPRPMEDPRP	-0.00968
RRIRRRPPRLPRPRPRPLSNPRP	-0.0853
RRIRLRPPRLPRPRPRPTIPPRP	0.0895
RRIRTRPPRLPRPRPRPWSHPRP	-0.113
RRIRFRPPRLPRPRPRPNWIPRP	-0.426
RRIRPRPPRLPRPRPRPVFQPRP	0.315
RRIRIRPPRLPRPRPRPASAPRP	0.613
RRIRVRPPRLPRPRPRPWPQPRP	0.104
RRIRHRPPRLPRPRPRPIYSPRP	0.0188
RRIRERPPRLPRPRPRPAQQPRP	-0.0516
RRIRERPPRLPRPRPRPQPSPRP	0.0462
RRIRRRPPRLPRPRPRPIYQPRP	2.25
RRIRIRPPRLPRPRPRPLPLPRP	0.0472
RRIRPRPPRLPRPRPRPNFPPRP	0.0652

Sequence	shrunken log2 fold change
RRIRCRPPRLPRPRPRPRVTPRP	0.23
RRIRLRPPRLPRPRPRPEVGPRP	-0.0231
RRIRPRPPRLPRPRPRPVDSPRP	-0.177
RRIRQRPPRLPRPRPRPPMDPRP	-0.0321
RRIRARPPRLPRPRPRPPTKPRP	0.486
RRIRMRPPRLPRPRPRPTAPPRP	0.905
RRIRFRPPRLPRPRPRPDYAPRP	-1.13
RRIRDRPPRLPRPRPRPPTHPRP	0.21
RRIRDRPPRLPRPRPRPALFPRP	0.99
RRIRWRPPRLPRPRPRPGMGPRP	0.525
RRIRKRPPRLPRPRPRPGLPPRP	0.348
RRIRARPPRLPRPRPRPTCSPRP	0.483
RRIRGRPPRLPRPRPRPLHQPRP	0.665
RRIRARPPRLPRPRPRPLWWPRP	0.648
RRIRNRPPRLPRPRPRPESIPRP	-0.24
RRIRKRPPRLPRPRPRPTSNPRP	0.161
RRIRYRPPRLPRPRPRPYYNPRP	-0.231
RRIRQRPPRLPRPRPRPDFTPRP	-0.134
RRIRRRPPRLPRPRPRPYWPPRP	-0.377
RRIRSRPPRLPRPRPRPHYWPRP	-0.519
RRIRCRPPRLPRPRPRPQLYPRP	-0.236
RRIRSRPPRLPRPRPRPARYPRP	-0.0163
RRIRVRPPRLPRPRPRPQWEPRP	0.0101
RRIRPRPPRLPRPRPRPKICPRP	-0.0701
RRIRKRPPRLPRPRPRPCSSPRP	-0.0581

Sequence	shrunken log2 fold change
RRIRGRPPRLPRPRPRPKTDPRP	0.797
RRIRRRPPRLPRPRPRPSCGPRP	0.0769
RRIRDRPPRLPRPRPRPVIGPRP	0.16
RRIRCRPPRLPRPRPRPQYQPRP	-0.697
RRIRHRPPRLPRPRPRPSPMPRP	-0.418
RRIRHRPPRLPRPRPRPCPKPRP	0.03
RRIRQRPPRLPRPRPRPNVEPRP	-0.0222
RRIRIRPPRLPRPRPRPTMRPRP	0.553
RRIRHRPPRLPRPRPRPTWCPRP	0.582
RRIRGRPPRLPRPRPRPSVCPRP	0.159
RRIRWRPPRLPRPRPRPHWRPRP	0.329
RRIRSRPPRLPRPRPRPSFQPRP	-0.282
RRIRVRPPRLPRPRPRPLNFPRP	-0.249
RRIRRRPPRLPRPRPRPIWCPRP	-0.0104
RRIRERPPRLPRPRPRPDQSPRP	-0.336
RRIRVRPPRLPRPRPRPLHWPRP	0.243
RRIRWRPPRLPRPRPRPHVTPRP	-0.264
RRIRNRPPRLPRPRPRPQLIPRP	-0.0323
RRIRMRPPRLPRPRPRPLWRPRP	0.704
RRIRRRPPRLPRPRPRPHKAPRP	0.434
RRIRWRPPRLPRPRPRPSFAPRP	0.28
RRIRMRPPRLPRPRPRPECQPRP	3.29
RRIRCRPPRLPRPRPRPLYIPRP	-0.882
RRIRQRPPRLPRPRPRPFDVPRP	0.028
RRIRIRPPRLPRPRPRPFNHPRP	-0.0691

Sequence	shrunken log2 fold change
RRIRNRPPRLPRPRPRPVVRPRP	0.12
RRIRKRPPRLPRPRPRPSKKPRP	0.0529
RRIRNRPPRLPRPRPRPQHSPRP	-0.428
RRIRHRPPRLPRPRPRPPHRPRP	0.198
RRIRIRPPRLPRPRPRPNAAPRP	-0.014
RRIRKRPPRLPRPRPRPRYTPRP	-0.113
RRIRFRPPRLPRPRPRPTVWPRP	0.19
RRIRDRPPRLPRPRPRPGLFPRP	0.949
RRIRYRPPRLPRPRPRPAFHPRP	-0.518
RRIRHRPPRLPRPRPRPGAHPRP	-0.457
RRIRNRPPRLPRPRPRPYDMPRP	-0.00776
RRIRQRPPRLPRPRPRPEMAPRP	-0.0608
RRIRVRPPRLPRPRPRPIWIPRP	0.0696
RRIRLRPPRLPRPRPRPLAYPRP	-0.264
RRIRVRPPRLPRPRPRPIKPPRP	-0.15
RRIRERPPRLPRPRPRPCPEPRP	-0.324
RRIRQRPPRLPRPRPRPEGRPRP	0.00666
RRIRVRPPRLPRPRPRPRAQPRP	0.126
RRIRIRPPRLPRPRPRPLCCPRP	-0.317
RRIRWRPPRLPRPRPRPSVYPRP	0.0378
RRIRDRPPRLPRPRPRPHCQPRP	-0.146
RRIRYRPPRLPRPRPRPEPNPRP	-0.0357
RRIRNRPPRLPRPRPRPFIMPRP	-0.889
RRIRMRPPRLPRPRPRPWAEPRP	0.628
RRIRYRPPRLPRPRPRPNGDPRP	-0.112
